# Laboratory results published in the supplement of paper PMC5998384.
# Experiments:
# [1] = system: HeLa Kyoto; assay: solubility change mitosis vs G1/S (difference of NP-40 vs SDS log2 ratios) (log2 ratio difference); higher = more soluble in mitosis
# [2] = system: HeLa Kyoto; assay: solubility in G1/S (NP-40 vs SDS abundance) (log2 ratio); higher = more soluble; details: cell cycle stage: G1/S
# 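Throughout, for solubility change mitosis vs G1/S (difference of NP-40 vs SDS log2 ratios): synchronized HeLa Kyoto cells (double thymidine block for G1/S, nocodazole release for mitosis), protein amounts in NP-40 versus SDS lysates quantified by mass spectrometry, three biological replicates.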
# 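Throughout, for solubility in G1/S (NP-40 vs SDS abundance): HeLa Kyoto cells arrested at G1/S by double thymidine block, proteins quantified by TMT10plex mass spectrometry in mild NP-40 versus SDS extracts, three biological replicates.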
Substance,solubility change mitosis (log2) [1],solubility in G1/S (log2) [2]
MGVALRKLTQWTAAGHGTGILEITPLNEAILKEIIVFVESFIYKHPQEAKFVFVEPLEWNTSLAPSAFESGYVVSETTVKSEEVDKNGQPLLFLSVPQIKIRSFGQLSRLLLIAKTGKLKEAQACVEANRDPIVKILGSDYNTMKENSIALNILGKITRDDDPESEIKMKIAMLLKQLDLHLLNHSLKHISLEISLSPMTVKKDIELLKRFSGKGNQTVLESIEYTSDYEFSNGCRAPPWRQIRGEICYVLVKPHDGETLCITCSAGGVFLNGGKTDDEGDVNYERKGSIYKNLVTFLREKSPKFSENMSKLGISFSEDQQKEKDQLGKAPKKEEAAALRKDISGSDKRSLEKNQINFWRNQMTKRWEPSLNWKTTVNYKGKGSAKEIQEDKHTGKLEKPRPSVSHGRAQLLRKSAEKIEETVSDSSSESEEDEEPPDHRQEASADLPSEYWQIQKLVKYLKGGNQTATVIALCSMRDFSLAQETCQLAIRDVGGLEVLINLLETDEVKCKIGSLKILKEISHNPQIRQNIVDLGGLPIMVNILDSPHKSLKCLAAETIANVAKFKRARRVVRQHGGITKLVALLDCAHDSTKPAQSSLYEARDVEVARCGALALWSCSKSHTNKEAIRKAGGIPLLARLLKTSHENMLIPVVGTLQECASEENYRAAIKAERIIENLVKNLNSENEQLQEHCAMAIYQCAEDKETRDLVRLHGGLKPLASLLNNTDNKERLAAVTGAIWKCSISKENVTKFREYKAIETLVGLLTDQPEEVLVNVVGALGECCQERENRVIVRKCGGIQPLVNLLVGINQALLVNVTKAVGACAVEPESMMIIDRLDGVRLLWSLLKNPHPDVKASAAWALCPCIKNAKDAGEMVRSFVGGLELIVNLLKSDNKEVLASVCAAITNIAKDQENLAVITDHGVVPLLSKLANTNNNKLRHHLAEAISRCCMWGRNRVAFGEHKAVAPLVRYLKSNDTNVHRATAQALYQLSEDADNCITMHENGAVKLLLDMVGSPDQDLQEAAAGCISNIRRLALATEKARYT [ARMC4],0.00126,0.0866
MGDAGSERSKAPSLPPRCPCGFWGSSKTMNLCSKCFADFQKKQPDDDSAPSTSNSQSDLFSEETTSDNNNTSITTPTLSPSQQPLPTELNVTSPSKEECGPCTDTAHVSLITPTKRSCGTDSQSENEASPVKRPRLLENTERSEETSRSKQKSRRRCFQCQTKLELVQQELGSCRCGYVFCMLHRLPEQHDCTFDHMGRGREEAIMKMVKLDRKVGRSCQRIGEGCS [ZFAND3],-0.0341,0.216
MIPLEKPGSGGSSPGATSGSGRAGRGLSGPCRPPPPPQARGLLTEIRAVVRTEPFQDGYSLCPGRELGRGKFAVVRKCIKKDSGKEFAAKFMRKRRKGQDCRMEIIHEIAVLELAQDNPWVINLHEVYETASEMILVLEYAAGGEIFDQCVADREEAFKEKDVQRLMRQILEGVHFLHTRDVVHLDLKPQNILLTSESPLGDIKIVDFGLSRILKNSEELREIMGTPEYVAPEILSYDPISMATDMWSIGVLTYVMLTGISPFLGNDKQETFLNISQMNLSYSEEEFDVLSESAVDFIRTLLVKKPEDRATAEECLKHPWLTQSSIQEPSFRMEKALEEANALQEGHSVPEINSDTDKSETKESIVTEELIVVTSYTLGQCRQSEKEKMEQKAISKRFKFEEPLLQEIPGEFIY [STK17A],-0.0546,0.0848
MVLLHVKRGDESQFLLQAPGSTELEELTVQVARVYNGRLKVQRLCSEMEELAEHGIFLPPNMQGLTDDQIEELKLKDEWGEKCVPSGGAVFKKDDIGRRNGQAPNEKMKQVLKKTIEEAKAIISKKQVEAGVCVTMEMVKDALDQLRGAVMIVYPMGLPPYDPIRMEFENKEDLSGTQAGLNVIKEAEAQLWWAAKELRRTKKLSDYVGKNEKTKIIAKIQQRGQGAPAREPIISSEEQKQLMLYYHRRQEELKRLEENDDDAYLNSPWADNTALKRHFHGVKDIKWRPR [C21ORF59],0.0264,0.335
SOGA1,0.0556,-0.0256
MPKIVLNGVTVDFPFQPYKCQQEYMTKVLECLQQKVNGILESPTGTGKTLCLLCTTLAWREHLRDGISARKIAERAQGELFPDRALSSWGNAAAAAGDPIACYTDIPKIIYASRTHSQLTQVINELRNTSYRPKVCVLGSREQLCIHPEVKKQESNHLQIHLCRKKVASRSCHFYNNVEEKSLEQELASPILDIEDLVKSGSKHRVCPYYLSRNLKQQADIIFMPYNYLLDAKSRRAHNIDLKGTVVIFDEAHNVEKMCEESASFDLTPHDLASGLDVIDQVLEEQTKAAQQGEPHPEFSADSPSPGLNMELEDIAKLKMILLRLEGAIDAVELPGDDSGVTKPGSYIFELFAEAQITFQTKGCILDSLDQIIQHLAGRAGVFTNTAGLQKLADIIQIVFSVDPSEGSPGSPAGLGALQSYKVHIHPDAGHRRTAQRSDAWSTTAARKRGKVLSYWCFSPGHSMHELVRQGVRSLILTSGTLAPVSSFALEMQIPFPVCLENPHIIDKHQIWVGVVPRGPDGAQLSSAFDRRFSEECLSSLGKALGNIARVVPYGLLIFFPSYPVMEKSLEFWRARDLARKMEALKPLFVEPRSKGSFSETISAYYARVAAPGSTGATFLAVCRGKASEGLDFSDTNGRGVIVTGLPYPPRMDPRVVLKMQFLDEMKGQGGAGGQFLSGQEWYRQQASRAVNQAIGRVIRHRQDYGAVFLCDHRFAFADARAQLPSWVRPHVRVYDNFGHVIRDVAQFFRVAERTMPAPAPRATAPSVRGEDAVSEAKSPGPFFSTRKAKSLDLHVPSLKQRSSGSPAAGDPESSLCVEYEQEPVPARQRPRGLLAALEHSEQRAGSPGEEQAHSCSTLSLLSEKRPAEEPRGGRKKIRLVSHPEEPVAGAQTDRAKLFMVAVKQELSQANFATFTQALQDYKGSDDFAALAACLGPLFAEDPKKHNLLQGFYQFVRPHHKQQFEEVCIQLTGRGCGYRPEHSIPRRQRAQPVLDPTGRTAPDPKLTVSTAAAQQLDPQEHLNQGRPHLSPRPPPTGDPGSQPQWGSGVPRAGKQGQHAVSAYLADARRALGSAGCSQLLAALTAYKQDDDLDKVLAVLAALTTAKPEDFPLLHRFSMFVRPHHKQRFSQTCTDLTGRPYPGMEPPGPQEERLAVPPVLTHRAPQPGPSRSEKTGKTQSKISSFLRQRPAGTVGAGGEDAGPSQSSGPPHGPAASEWGL [RTEL1],-0.104,-0.0713
KIAA0368,-0.156,0.0203
MEEGNNNEEVIHLNNFHCHRGQEWINLRDGPITISDSSDEERIPMLVTPAPQQHEEEDLDDDVILTEDDSEDDYGEFLDLGPPGISEFTKPSGQTEREPKPGPSHNQAANDIVNPRSEQKVIILEEGSLLYTESDPLETQNQSSEDSETELLSNLGESAALADDQAIEEDCWLDHPYFQSLNQQPREITNQVVPQERQPEAELGRLLFQHEFPGPAFPRPEPQQGGISGPSSPQPAHPLGEFEDQQLASDDEEPGPAFPMQESQEPNLENIWGQEAAEVDQELVELLVKETEARFPDVANGFIEEIIHFKNYYDLNVLCNFLLENPDYPKREDRIIINPSSSLLASQDETKLPKIDFFDYSKLTPLDQRCFIQAADLLMADFKVLSSQDIKWALHELKGHYAITRKALSDAIKKWQELSPETSGKRKKRKQMNQYSYIDFKFEQGDIKIEKRMFFLENKRRHCRSYDRRALLPAVQQEQEFYEQKIKEMAEHEDFLLALQMNEEQYQKDGQLIECRCCYGEFPFEELTQCADAHLFCKECLIRYAQEAVFGSGKLELSCMEGSCTCSFPTSELEKVLPQTILYKYYERKAEEEVAAAYADELVRCPSCSFPALLDSDVKRFSCPNPHCRKETCRKCQGLWKEHNGLTCEELAEKDDIKYRTSIEEKMTAARIRKCHKCGTGLIKSEGCNRMSCRCGAQMCYLCRVSINGYDHFCQHPRSPGAPCQECSRCSLWTDPTEDDEKLIEEIQKEAEEEQKRKNGENTFKRIGPPLEKPVEKVQRVEALPRPVPQNLPQPQMPPYAFAHPPFPLPPVRPVFNNFPLNMGPIPAPYVPPLPNVRVNYDFGPIHMPLEHNLPMHFGPQPRHRF [RNF216],-0.122,-0.195
MSYRRELEKYRDLDEDEILGALTEEELRTLENELDELDPDNALLPAGLRQKDQTTKAPTGPFKREELLDHLEKQAKEFKDREDLVPYTGEKRGKVWVPKQKPLDPVLESVTLEPELEEALANASDAELCDIAAILGMHTLMSNQQYYQALSSSSIMNKEGLNSVIKPTQYKPVPDEEPNSTDVEETLERIKNNDPKLEEVNLNNIRNIPIPTLKAYAEALKENSYVKKFSIVGTRSNDPVAYALAEMLKENKVLKTLNVESNFISGAGILRLVEALPYNTSLVEMKIDNQSQPLGNKVEMEIVSMLEKNATLLKFGYHFTQQGPRLRASNAMMNNNDLVRKRRLADLTGPIIPKCRSGV [TMOD1],0.357,0.122
